Substrate in this data set: O=C(Cc1cccs1)N[C@@H]1C(=O)N2C(C(=O)O)=C(Cn3c(=O)[nH]cc(F)c3=O)CS[C@H]12
As to the kind of experiment: Activity at Enterobacter cloacae P99 beta-lactamase by Michaelis-Menten equation.

The values that follow come from ChEMBL document CHEMBL1152703, “Design and synthesis of a beta-lactamase activated 5-fluorouracil prodrug” (Bioorg Med Chem Lett, 2009).

B1: Beta-lactamase (Enterobacter cloacae), P05364 (protein)
chain: MMRKSLCCALLLGISCSALATPVSEKQLAEVVANTITPLMKAQSVPGMAVAVIYQGKPHYYTFGKADIAANKPVTPQTLFELGSISKTFTGVLGGDAIARGEISLDDAVTRYWPQLTGKQWQGIRMLDLATYTAGGLPLQVPDEVTDNASLLRFYQNWQPQWKPGTTRLYANASIGLFGALAVKPSGMPYEQAMTTRVLKPLKLDHTWINVPKAEEAHYAWGYRDGKAVRVSPGMLDAQAYGVKTNVQDMANWVMANMAPENVADASLKQGIALAQSRYWRIGSMYQGLGWEMLNWPVEANTVVEGSDSKVALAPLPVAEVNPPAPPVKASWVHKTGSTGGFGSYVAFIPEKQIGIVMLANTSYPNPARVEAAYHILEALQ
One may read the Km as the concentration of substrate that gives half-maximal velocity. For orientation: Vmax means the rate approached at saturating substrate. Regarding B1, the Km came to 95.4 µM and the maximum rate (Vmax) was 3.21 µmol/min/mg.
